From patent US12338277

Assays:
Assay in all cases: cell-based or functional assay
[1] = target: HIV-1 Env of pseudovirus ZM109F.PB4 (HIV-1)
[2] = target: HIV-1 Env of pseudovirus X2088_c9 (HIV-1)
[3] = target: HIV-1 Env of pseudovirus Q259.d2.17 (HIV-1)
[4] = target: HIV-1 envelope of pseudovirus Q23.17 (HIV-1)
[5] = target: HIV-1 Env of pseudovirus 1054_07_TC4_1499 (HIV-1)
[6] = target: HIV-1 envelope of pseudovirus CAAN5342.A2 (HIV-1)
[7] = target: HIV-1 Env of pseudovirus HIV-0013095-2.11 (HIV-1)
[8] = target: HIV-1 envelope of pseudovirus CNE19 (HIV-1)
[9] = target: HIV-1 envelope of pseudovirus Du422.1 (HIV-1)
[10] = target: HIV-1 Env of pseudovirus 6041.v3.c23 (HIV-1)
[11] = target: HIV-1 Env of pseudovirus BJOX015000.11.5 (HIV-1)
[12] = target: HIV-1 envelope of pseudovirus R1166.c01 (HIV-1)
[13] = target: HIV-1 envelope of pseudovirus X2088_c9 (HIV-1)
[14] = target: HIV-1 envelope of pseudovirus REJO4541.67 (HIV-1)
[15] = target: HIV-1 envelope of pseudovirus ZM135M.PL10a (HIV-1)
[16] = target: HIV-1 Env of pseudovirus PVO.4 (HIV-1)
[17] = target: HIV-1 Env of pseudovirus 62357_14_03_4589 (HIV-1)
[18] = target: HIV-1 Env of pseudovirus YU-2 (HIV-1) (UniProt P35961)
HIV-1 Env of pseudovirus YU-2 (HIV-1), sequence (P35961 32-843 limits assumed): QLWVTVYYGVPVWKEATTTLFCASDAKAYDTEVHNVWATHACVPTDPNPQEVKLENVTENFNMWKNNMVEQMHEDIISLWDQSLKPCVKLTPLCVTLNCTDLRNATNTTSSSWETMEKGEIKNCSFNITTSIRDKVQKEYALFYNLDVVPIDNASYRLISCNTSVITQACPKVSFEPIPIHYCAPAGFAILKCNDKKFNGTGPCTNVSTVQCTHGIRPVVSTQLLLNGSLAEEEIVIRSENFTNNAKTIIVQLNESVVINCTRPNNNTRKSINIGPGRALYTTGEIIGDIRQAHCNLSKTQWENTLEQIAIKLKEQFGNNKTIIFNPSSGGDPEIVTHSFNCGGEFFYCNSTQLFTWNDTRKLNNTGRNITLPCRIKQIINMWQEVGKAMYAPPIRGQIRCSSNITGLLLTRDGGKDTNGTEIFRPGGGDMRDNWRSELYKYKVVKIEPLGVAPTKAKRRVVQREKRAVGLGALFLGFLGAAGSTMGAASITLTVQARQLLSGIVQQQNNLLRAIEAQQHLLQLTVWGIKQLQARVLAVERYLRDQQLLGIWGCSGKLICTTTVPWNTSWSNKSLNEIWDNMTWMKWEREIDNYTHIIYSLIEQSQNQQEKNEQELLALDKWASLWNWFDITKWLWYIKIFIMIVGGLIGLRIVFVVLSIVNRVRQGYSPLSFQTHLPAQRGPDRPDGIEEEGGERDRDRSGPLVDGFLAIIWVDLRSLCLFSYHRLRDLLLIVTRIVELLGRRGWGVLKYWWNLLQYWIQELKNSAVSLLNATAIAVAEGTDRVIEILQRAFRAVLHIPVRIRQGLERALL

[19] = target: HIV-1 Env of pseudovirus 6952.v1.c20 (HIV-1)
[20] = target: HIV-1 Env of pseudovirus 0260.v5.c36 (HIV-1)
[21] = target: HIV-1 Env of pseudovirus X1193_c1 (HIV-1)
[22] = target: HIV-1 Env of pseudovirus T278-50 (HIV-1)
[23] = target: HIV-1 envelope of pseudovirus 0815.v3.c3 (HIV-1)
[24] = target: HIV-1 envelope glycoprotein of pseudovirus X1254_c3 (clade G) (HIV-1)
[25] = target: HIV-1 envelope glycoprotein of pseudovirus Q842.d12 (clade A) (HIV-1)
[26] = target: HIV-1 Env of pseudovirus BJOX009000.02.4 (HIV-1)
[27] = target: HIV-1 envelope glycoprotein of pseudovirus 1054_07_TC4_1499 (clade B (T/F)) (HIV-1)
[28] = target: HIV-1 envelope of pseudovirus ZM233M.PB6 (HIV-1)
[29] = target: HIV-1 envelope glycoprotein of pseudovirus WITO4160.33 (clade B) (HIV-1)
[30] = target: HIV-1 envelope glycoprotein of pseudovirus ZM135M.PL10a (clade C) (HIV-1)
[31] = target: HIV-1 envelope glycoprotein of pseudovirus TRJO4551.58 (clade B) (HIV-1)
[32] = target: HIV-1 envelope glycoprotein of pseudovirus BJOX009000.02.4 (clade CRF01_AE) (HIV-1)
[33] = target: HIV-1 envelope glycoprotein of pseudovirus CNE19 (clade BC) (HIV-1)
[34] = target: HIV-1 envelope glycoprotein of pseudovirus 928-28 (clade CRF02_AG) (HIV-1)
[35] = target: HIV-1 envelope glycoprotein of pseudovirus 62357_14_D3_4589 (clade B (T/F)) (HIV-1)
[36] = target: HIV-1 envelope glycoprotein of pseudovirus T251-18 (clade CRF02_AG) (HIV-1)
[37] = target: HIV-1 envelope glycoprotein of pseudovirus 263-8 (clade CRF02_AG) (HIV-1)
[38] = target: HIV-1 envelope glycoprotein of pseudovirus HIV-16055-2.3 (clade C) (HIV-1)
[39] = target: HIV-1 envelope glycoprotein of pseudovirus Ce1172_H1 (clade C (T/F)) (HIV-1)
[40] = target: HIV-1 envelope glycoprotein of pseudovirus Ce1086_B2 (clade C (T/F)) (HIV-1)
[41] = target: HIV-1 envelope glycoprotein of pseudovirus YU.2 (clade B) (HIV-1) (UniProt P35961)
HIV-1 envelope glycoprotein of pseudovirus YU.2 (clade B) (HIV-1), sequence (P35961 32-843): as the sequence (P35961 32-843 limits assumed) above

[42] = target: HIV-1 envelope glycoprotein of pseudovirus CNE17 (clade BC) (HIV-1)
[43] = target: HIV-1 envelope glycoprotein of pseudovirus 211-9 (clade CRF02_AG) (HIV-1)
[44] = target: HIV-1 envelope glycoprotein of pseudovirus RHPA4259.7 (clade B) (HIV-1)
[45] = target: HIV-1 envelope glycoprotein of pseudovirus CAP45.2.00.G3 (clade C) (HIV-1)
[46] = target: HIV-1 envelope glycoprotein of pseudovirus QH0692.42 (clade B) (HIV-1)
[47] = target: HIV-1 envelope glycoprotein of pseudovirus CNE30 (clade BC) (HIV-1)

10-996 (antibody), sequence (VH): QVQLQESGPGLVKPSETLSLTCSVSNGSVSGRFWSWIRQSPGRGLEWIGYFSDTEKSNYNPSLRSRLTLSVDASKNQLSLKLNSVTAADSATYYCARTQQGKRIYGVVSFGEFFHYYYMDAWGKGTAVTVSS
10-996 (antibody), sequence (VL): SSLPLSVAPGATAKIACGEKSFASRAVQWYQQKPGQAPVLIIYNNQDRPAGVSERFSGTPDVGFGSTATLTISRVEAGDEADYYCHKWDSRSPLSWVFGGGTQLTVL
10-1074 (antibody), sequence (VH): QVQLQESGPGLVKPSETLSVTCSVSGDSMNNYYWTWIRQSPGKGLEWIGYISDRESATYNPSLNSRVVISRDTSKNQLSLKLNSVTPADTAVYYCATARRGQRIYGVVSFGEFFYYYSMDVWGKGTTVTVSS
10-1074 (antibody), sequence (V domain): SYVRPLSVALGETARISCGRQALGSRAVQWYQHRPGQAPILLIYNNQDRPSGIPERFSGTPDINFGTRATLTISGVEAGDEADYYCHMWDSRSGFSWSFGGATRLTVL

## 10-996 (antibody)
[1]
  IC80 (TZM-bl neutralization): > 50 µg/mL
[2]
  IC80 (TZM-bl neutralization): 0.014 µg/mL
[3]
  IC80 (TZM-bl neutralization): > 50 µg/mL
[4]
  IC50 (TZM-bl neutralization): 8 ng/mL
[5]
  IC80 (TZM-bl neutralization): 0.901 µg/mL
[6]
  IC50 (TZM-bl neutralization): 13 ng/mL
[7]
  IC80 (TZM-bl neutralization): > 50 µg/mL
[8]
  IC50 (TZM-bl neutralization): 3.45 µg/mL
[9]
  IC50 (TZM-bl neutralization): 0.056 µg/mL
[10]
  IC80 (TZM-bl neutralization): > 50 µg/mL
[11]
  IC80 (TZM-bl neutralization): > 50 µg/mL
[12]
  IC50 (TZM-bl neutralization): > 50 µg/mL
[13]
  IC50 (TZM-bl neutralization): 2 ng/mL
[14]
  IC50 (TZM-bl neutralization): > 50 µg/mL
[15]
  IC50 (TZM-bl neutralization): 0.099 µg/mL
[16]
  IC80 (TZM-bl neutralization): 0.952 µg/mL
[17]
  IC80 (TZM-bl neutralization): > 50 µg/mL
[18]
  IC80 (TZM-bl neutralization): 0.891 µg/mL
[19]
  IC80 (TZM-bl neutralization): 0.188 µg/mL
[20]
  IC80 (TZM-bl neutralization): 0.436 µg/mL
[21]
  IC80 (TZM-bl neutralization): 0.482 µg/mL
[22]
  IC80 (TZM-bl neutralization): > 50 µg/mL
[23]
  IC50 (TZM-bl neutralization): 0.061 µg/mL

## 10-1074 (antibody)
[1]
  IC80 (TZM-bl neutralization): > 50 µg/mL
[24]
  IC50 in the TZM-bl neutralization assay: 0.297 µg/mL
[2]
  IC80 (TZM-bl neutralization): 0.014 µg/mL
[3]
  IC80 (TZM-bl neutralization): > 50 µg/mL
[25]
  IC50 in the TZM-bl neutralization assay: > 50 µg/mL
[26]
  IC80 (TZM-bl neutralization): > 50 µg/mL
[27]
  IC50 in the TZM-bl neutralization assay: 0.563 µg/mL
[4]
  IC50 (TZM-bl neutralization): 6 ng/mL
[5]
  IC80 (TZM-bl neutralization): 0.563 µg/mL
[28]
  IC50 (TZM-bl neutralization): 0.06 µg/mL
[6]
  IC50 (TZM-bl neutralization): 7 ng/mL
[29]
  IC50 in the TZM-bl neutralization assay: 2.11 µg/mL
[30]
  IC50 in the TZM-bl neutralization assay: 0.367 µg/mL
[7]
  IC80 (TZM-bl neutralization): > 50 µg/mL
[31]
  IC50 in the TZM-bl neutralization assay: 0.634 µg/mL
[8]
  IC50 (TZM-bl neutralization): 50 µg/mL
[32]
  IC50 in the TZM-bl neutralization assay: > 50 µg/mL
[33]
  IC50 in the TZM-bl neutralization assay: 50 µg/mL
[9]
  IC50 (TZM-bl neutralization): 0.045 µg/mL
[34]
  IC50 in the TZM-bl neutralization assay: 4.7 µg/mL
[35]
  IC50 in the TZM-bl neutralization assay: > 50 µg/mL
[10]
  IC80 (TZM-bl neutralization): > 50 µg/mL
[36]
  IC50 in the TZM-bl neutralization assay: 7.39 µg/mL
[37]
  IC50 in the TZM-bl neutralization assay: 6.53 µg/mL
[11]
  IC80 (TZM-bl neutralization): > 50 µg/mL
[38]
  IC50 in the TZM-bl neutralization assay: > 50 µg/mL
[39]
  IC50 in the TZM-bl neutralization assay: 0.166 µg/mL
[12]
  IC50 (TZM-bl neutralization): > 50 µg/mL
[13]
  IC50 (TZM-bl neutralization): 3 ng/mL
[14]
  IC50 (TZM-bl neutralization): > 50 µg/mL
[15]
  IC50 (TZM-bl neutralization): 0.069 µg/mL
[40]
  IC50 in the TZM-bl neutralization assay: > 50 µg/mL
[41]
  IC50 in the TZM-bl neutralization assay: 0.398 µg/mL
[42]
  IC50 in the TZM-bl neutralization assay: 13.3 µg/mL
[16]
  IC80 (TZM-bl neutralization): 0.36 µg/mL
[17]
  IC80 (TZM-bl neutralization): > 50 µg/mL
[43]
  IC50 in the TZM-bl neutralization assay: 0.425 µg/mL
[44]
  IC50 in the TZM-bl neutralization assay: 0.118 µg/mL
[18]
  IC80 (TZM-bl neutralization): 0.398 µg/mL
[19]
  IC80 (TZM-bl neutralization): 0.138 µg/mL
[45]
  IC50 in the TZM-bl neutralization assay: > 50 µg/mL
[46]
  IC50 in the TZM-bl neutralization assay: 0.929 µg/mL
[20]
  IC80 (TZM-bl neutralization): 0.16 µg/mL
[21]
  IC80 (TZM-bl neutralization): 0.475 µg/mL
[47]
  IC50 in the TZM-bl neutralization assay: 1.2 µg/mL
[22]
  IC80 (TZM-bl neutralization): 18.3 µg/mL
[23]
  IC50 (TZM-bl neutralization): 0.03 µg/mL
